Test results: article PMC10144703, “Molecular Mechanism of Sirtuin 1 Inhibition by Human Immunodeficiency Virus 1 Tat Protein” (Life, 2023)

Target: T1, human full-length Sirt1 (fl-Sirt1) (Homo sapiens, UniProt Q96EB6)
T1 construct: human full-length Sirt1 (fl-Sirt1) in pET-15b; made in house; host or cells: E. coli CodonPlus(DE3)
T1 sequence (Q96EB6 1-747): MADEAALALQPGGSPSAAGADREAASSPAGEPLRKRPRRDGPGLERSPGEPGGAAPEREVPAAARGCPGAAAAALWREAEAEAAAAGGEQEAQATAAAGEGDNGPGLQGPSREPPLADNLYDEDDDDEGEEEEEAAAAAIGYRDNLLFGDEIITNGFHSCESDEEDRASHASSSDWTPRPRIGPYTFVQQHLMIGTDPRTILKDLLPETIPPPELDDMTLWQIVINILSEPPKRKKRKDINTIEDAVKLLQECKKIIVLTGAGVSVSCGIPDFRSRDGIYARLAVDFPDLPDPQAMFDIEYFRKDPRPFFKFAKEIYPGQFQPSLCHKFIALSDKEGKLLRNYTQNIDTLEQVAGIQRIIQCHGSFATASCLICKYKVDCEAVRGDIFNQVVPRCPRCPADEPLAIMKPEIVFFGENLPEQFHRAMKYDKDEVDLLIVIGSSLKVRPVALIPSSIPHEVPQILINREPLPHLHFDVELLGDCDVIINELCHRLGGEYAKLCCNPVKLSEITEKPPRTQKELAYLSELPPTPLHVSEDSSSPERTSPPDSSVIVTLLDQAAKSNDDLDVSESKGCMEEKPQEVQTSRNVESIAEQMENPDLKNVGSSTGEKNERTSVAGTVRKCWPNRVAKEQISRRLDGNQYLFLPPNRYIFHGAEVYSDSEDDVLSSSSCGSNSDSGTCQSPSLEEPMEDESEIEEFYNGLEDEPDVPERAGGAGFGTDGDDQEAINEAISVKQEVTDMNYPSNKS
Test: FdL deacetylation assay, fl-Sirt1
Format: biochemical
Conditions: Figure 1D,E; compared with Sirt2 and Sirt3
From the text: A human mini-Sirt1 construct (aa 183-505-(GGGS)2-641-665), as described in [27], was generated in a modified pET-19b with a TEV cleavage site. This construct and human full-length Sirt1 (fl-Sirt1) in pET-15b, Sirt1-(183-664) and Sirt1-(214-664) in pET-15b, mini-Sirt1-∆SBD (aa 214-505-(GGGS)2-641-665) and mini-Sirt1-∆ESA (aa 183–505) in a modified pET-19b with TEV cleavage site, Sirt2-(43-356) in a modified pET-19b with a His6-Sumo tag, Sirt3-(93-399) in a modified pET-32a with Trx-His6 tag and TEV cleavage site, hSirt3-(118-399) in pVFT3S (Sungkyunkwan University, Seoul, Republic of Korea) with His6-Trx tag and TEV cleavage site, Sirt5-(34-302) in pET-151/D-TOPO, and Sirt6-(1-355) in pQE80L.1 were purified as described. Shortly, proteins were expressed at 20 °C (mini-Sirt1 constructs at 16 °C) in E. coli CodonPlus(DE3), cell lysates were cleared by centrifugation, and proteins were purified via affinity chromatography using a nickel NTA column. After digestion with thrombin or TEV protease, proteins were re-run over the nickel NTA column, pooled, and concentrated. The samples were, then, subjected either directly to size exclusion chromatography in 50 mM Tris/HCl, pH 8.0, 150 mM NaCl, 1 mM TCEP, or to an ion exchange chromatography followed by size exclusion chromatography. […]

B1: Tat-Cys^−: Recombinant 86-residue HIV1 Zaire 2 Tat with C22S, C25A, C27A, C30S, C31A, C34S, and C37A (protein)
chain: MDPVDPNIEPWNHPGSQPKTASNRAHAKKSAYHSQVAFITKGLGISYGRKKRRQRRRPSQGGQTHQDPIPKQPSSQPRGDPTGPKE
relative isoform inhibition, Sirt1 vs other isoforms: slightly more potent inhibition of this isoform
